# Source: patent US20150361176A1 (GlaxoSmithKline, published 2015)
# “And” between values parts separate entries of the source, which are not always exact repeats. Equal entries are not always repeated.
# B1: DOM23h-854 (VHH, not shown: small tags and cut ends)
# VHH: EVQLLESGGGLVQPGGSLRLSCAASGFTFAQDRMWWVRQAPGKGLEWVSAISGSGGSTYYADSVKGRFTISRDNSKNTLYLQMNSLRAEDTAVYYCAKQDLHGTSSLFDYWGQGTLVTVSS
# B2: DOM23h-840 (VHH, not shown: small tags and cut ends)
# VHH: EVQLLESGGGLVQPGGSLRLSCAASGFTFGDGRMWWVRQAPGKGLEWVSAIEGAGSDTYYADSVKGRFTISRDNSKNTLYLQMNSLRAEDTAVYYCAKQASRNSPFDYWGQGTLVTVSS
# B3: DOM23h-850 (VHH, not shown: small tags and cut ends)
# VHH: EVQLLESGGGLVQPGGSLRLSCAASGFTFDAARMWWARQAPGKGLEWVSAIADIGNTTYYADSVKGRFTISRDNSKNTLYLQMNSLRAEDTAVYYCAKQSGSEDHFDYWGQGTLVTVSS
# B4: DOM23h-874 (VHH, not shown: small tags and cut ends)
# VHH: EVQLLESGGGLVQPGGSLRLSCAASGFTFTSYRMWWVRQAPGKGLEWVSVIDSTGSATYYADSVKGRFTISRDNSKNTLYLQMNSLRAEDTAVYYCAKQQAGSAMGEFDYWGQGTLVTVSS
# B5: DOM23h-830 (VHH, not shown: small tags and cut ends)
# VHH: EVQLLESGGGLVQPGGFLRLSCAASGFTFEGYRMWWVRQAPGKGLEWVSAIDSLGDRTYYADSVKGRFTISRDNSKNTLYLQMNSLRAEDTAVYYCAKQGLTHQSPSTFDYWGQGTLVTVSS
# B6: DOM23h-815 (VHH, not shown: small tags and cut ends)
# VHH: EVQLLESGGGLVQPGGSLRLSCAASGFTFAEDRMWWVRQAPGKGLEWVSAIDPQGQHTYYADSVKGRFTISRDNSKNTLYLQMNSLRAEDTAVYYCAKQSTGSATSDYWGQGTLVTVSS
# B7: DOM23h-842 (VHH, not shown: small tags and cut ends)
# VHH: EVQLLESGGGLVQPGGSLRLSCAASGFTFDDSEMAWARQAPGKGLEWVSLIRRNGNATYYADSVKGRFTISRDNSKNTLYLQMNSLRAEDTAVYYCAKVTKDRSVLFDYWGQGTLVTVSS
# B8: DOM23h-865 (VHH, not shown: small tags and cut ends)
# VHH: EVQLLESGGGLVQPGGSLRLSCAASGFTFRSYEMTWVRQAPGKGLEWVSKIDPSGRFTYYADSVKGRFTISRDNSKNTLYLQMNSLRAEDTAVYYCAKGRTDLQLFDYWGQGTLVTVSS
# B9: DOM23h-883 (VHH, not shown: small tags and cut ends)
# VHH: EVQLLESGGGLVQPGGSLRLSCAASGFTFVNYRMWWVRQAPGKGLEWVSAISGSGDKTYYADSVKGRFTISRDNSKNTLYLQMNSLRAEDTAVYYCAKHGLSFDYWGQGTLVTVSS
# B10: DOM23h-903 (VHH, not shown: small tags and cut ends)
# VHH: EVQLLESGGGLVQPGGSLRLSCAASGFTFNDMRMWWVRQAPGKGLEWVSVINADGNRTYYADSVKGRFTISRDNSKNTLYLQMNSLRAEDTAVYYCAKDGLPFDYWGQGTLVTVSS
# B11: DOM23h-831 (VHH, not shown: small tags and cut ends)
# VHH: EVQLLESGGGLVQPGGSLRLSCAASGFTFEAYKMTWVRQAPGKGLEWVSYITPSGGQTYYADSVKGRFTISRDNSKNTLYLQMNSLRAEDTAVYYCAKYGSSFDYWGQGTLVTVSS
# B12: DOM23h-828 (VHH, not shown: small tags and cut ends)
# VHH: EVQLLESGGGLVQPGGSLRLSCAASGFTFMSYRMWWVRQAPGKGLEWVSAISPSGSDTYYADSVKGRFTISRDNSKNTLYLQMNSLRAEDTAVYYCAKQVVEYSRTHKGVFDYWGQGTLVTVSS
# B13: DOM23h-802 (VHH, not shown: small tags and cut ends)
# VHH: EVQLLESGGGLVQPGGSLRLSCAASGFTFSEGTMWWVRQAPGKGLEWVSAILAAGSNTYYADSVKGRFTISRDNSKNTLYLQMNSLRAEDTAVYYCAKKRQERDGFDYWGQGTLVTVSS
# B14: DOM23h-866 (VHH, not shown: small tags and cut ends)
# VHH: EVQLLESGGGLVQPGGSLRLSCAASGFTFSNYWMRWARQAPGKGLEWVSYITPKGDHTYYADSVKGRFTISRDNSKNTLYLQMNSLRAEDTAVYYCAESLHNERVKHFDYWGQGTLVTVSS
# B15: DOM23h-803 (VHH, not shown: small tags and cut ends)
# VHH: EVQLLESGGGLVQPGGSLRLSCAASGFTFSAGRMWWVRQAPGKGLEWVSAINRDGTRTYYADSVKGRFTISRDNSKNTLYLQMNSLRAEDTAVYYCAKHDDGHGNFDYWGQGTLVTVSS
# B16: DOM23h-813 (VHH, not shown: small tags and cut ends)
# VHH: EVQLLESGGGLVQPGGSLRLSCAASGSTFTDDRMWWVRQAPGKGLEWVSAIQPDGHTTYYADSVKGRFTISRDNSKNTLYLQMNSLRAEDTAVYYCAEQDVKGSSSFDYWGQGTLVTVSS
# B17: DOM23h-439-25 (VHH)
# VHH: EVQLLESGGGLVQPGGSLRLSCAASGFTFGTEQMWWVRQAPGKGLEFVSRIDSPGGRTYYADSVKGRFTISRDNSKNTLYLQMNSLRAEDTAVYYCAKRRPTGVSGTFYDYWGQGTLVTVSS
# notes: expressed from pC10
# B18: DOM23h-439-35 (VHH)
# VHH: EVQLLESGGGLVQPGGSLRLSCAASGFTFGTDQMWWVRQAPGKGLEFVSRIDSPGGRTYYANSVKGRFTISRDNSKNTLYLQMNSLRAEDTAVYYCAKRQPAGVSGKYVDYWGQGTLVTVSS
# notes: expressed from pC10
# B19: DOM23h-271-101 (VHH)
# VHH: EVQLLESGGGLVQPGGSLRLSCAASGFTFTEYRMWWVRQAPGKGLEWVSAIEPIGNRTYYADSVKGRFTISRDNSKNTLYLQMNSLRAEDTAVYYCAKQIPGRKWTANGRKDYWGQGTLVTVSS
# notes: human VH dAb from phage display maturation of DOM23h-271-7; not shown: C-terminal FLAG tag from vector pDOM10
# B20: DOM23h-271-102 (VHH)
# VHH: EVQLLESGGGLVQPGGSLRLSCAASGSTFTEYRMWWVRQAPGKGLEWVSAIEPIGHRTYYADSVKGRFTISRDNSKNTLYLQMNSLRAEDTAVYYCAKQIPGRKWTANSRFDYWGQGTLVTVSS
# notes: as for B19
# B21: DOM23h-271-105 (VHH)
# VHH: EVQLLESGGGLVQPGGSLRLSCAASGFTFTEYRMWWVRQAPGKGLEWVSAIEPIGNRTYYADSVKGRFTISRDNSKNTLYLQMNSLRAEDTAVYYCAKQIPGQRWTGNSRFDYWGQGTLVTVSS
# notes: as for B19
# B22: DOM23h-271-114 (VHH)
# VHH: EVQLLESGGGLVQPGGSLRLSCAASGFTFTEYRMWWVRQAPGKGLEWVSAIEPIGNRTYYADSVKGRFTISRDNSKNTLYLQMNSLRAEDTAVYYCAKQIPGRKGTANSRFDYWGQGTLVTVSS
# notes: as for B19
# B23: DOM23h-271-106 (VHH)
# VHH: EVQLLESGGGLVQPGGSLRLSCAASGFTFTEYRMWWVRQAPGKGLEWVSAIEPIGNRTYYADSVKGRFTISRDNSKNTLYLQMNSLRAEDTAVYYCAKQFPGRKWTANSRSDYWGQGTLVTVSS
# notes: human VH dAb from phage display maturation of DOM23h-271-7; also called 271-106a; 271-106b; not shown: C-terminal FLAG tag from vector pDOM10
# Molecular target: T1, human TGF-βRII on cells (SBE-bla HEK 293T cells; A549 cells) (human, UniProt P37173 23-567)
# T1 sequence (P37173 23-567): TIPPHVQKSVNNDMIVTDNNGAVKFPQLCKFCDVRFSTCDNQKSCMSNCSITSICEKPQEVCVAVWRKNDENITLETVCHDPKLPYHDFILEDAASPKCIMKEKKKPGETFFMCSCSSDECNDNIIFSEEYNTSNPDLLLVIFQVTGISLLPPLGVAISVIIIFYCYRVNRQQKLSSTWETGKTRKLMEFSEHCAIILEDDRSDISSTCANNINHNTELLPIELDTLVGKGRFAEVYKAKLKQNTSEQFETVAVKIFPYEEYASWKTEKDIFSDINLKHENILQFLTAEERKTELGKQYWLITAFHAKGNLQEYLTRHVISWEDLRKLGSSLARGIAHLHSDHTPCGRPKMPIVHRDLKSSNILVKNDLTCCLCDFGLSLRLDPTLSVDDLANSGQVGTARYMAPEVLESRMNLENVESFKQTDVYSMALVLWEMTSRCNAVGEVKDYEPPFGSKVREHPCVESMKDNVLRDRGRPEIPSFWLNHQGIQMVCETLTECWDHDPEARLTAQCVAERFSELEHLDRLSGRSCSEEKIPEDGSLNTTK
# Assay: cell-based or functional assay
row,Binder,"IC50 nM, Mean (SBE-bla HEK 293T cell sensor assay, h2) [nM]"
1,B1,> 9550
2,B2,2920
3,B3,5350
4,B4,> 925
5,B5,6300
6,B6,7120
7,B7,2040
8,B8,5560
9,B9,10100
10,B10,1050
11,B11,> 3130
12,B12,9900
13,B13,> 11100
14,B14,> 1760
15,B15,> 11600
16,B16,> 9330

# Molecular target: T1, human TGF-βRII on cells (SBE-bla HEK …)
# Assay: cell-based or functional assay
# Remark: another data set of the same source
row,Binder,"IC50 nM, Mean (SBE-bla HEK 293T cell sensor assay) [nM]"
1,B17,4
2,B18,0.5

# Molecular target: T2, recombinant human TGF-β RII/Fc chimera protein (human, UniProt P37173 24-159)
# T2 construct: range 24-159; Made in HEK-F cells; Biotinylated where it was put on SA chips, otherwise captured by anti-human IgG; also called human TGFbRII/Fc; hRII-Fc; not shown: Fc region of human IgG1
# T2 sequence (P37173 24-159 limits assumed, change not shown): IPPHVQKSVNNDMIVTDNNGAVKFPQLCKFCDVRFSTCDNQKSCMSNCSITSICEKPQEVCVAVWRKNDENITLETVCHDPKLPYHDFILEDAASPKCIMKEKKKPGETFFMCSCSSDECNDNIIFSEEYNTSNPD
# Assay: SPR Biacore T100, human TGFbRII-FC, 1:1 model
# Description: Triplet or doped libraries in separate CDR1, CDR2 and CDR3 pools were subjected to rounds of phage selection as described above against either biotinylated human TGF-β RII/Fc antigen over 4 rounds in concentrations of 10 nM, 1 nM, 100 pM and 20 pM respectively, or two rounds of selection using 20 pM followed by 2 pM antigen. Inserts from phage selections were cloned into the pDOM10 expression vector and supernatants with off rates improved over parent were selected for further study. Domain antibodies were expressed and purified their affinity and bioactivity against human TGF-β RII/Fc antigen tested on the BIACORE™ T100 and in the Cell sensor assay described above (data not shown).
# BIACORE™ analysis was carried out using a capture surface on a CM4 chip. Anti-human IgG was used as the capturing agent and coupled to a CM4 biosensor chip by primary amine coupling. The Antigen molecule fused to the human Fc was captured on this immobilised surface to a level from 250 to 300 resonance units and defined concentrations of Domain antibodies diluted in running buffer were passed over this captured surface. An injection of buffer over the captured antigen surface was used for double referencing. […] All runs were carried out at 25° C. using HBS-EP buffer as running buffer. Data were generated using the BIACORE™ T100 and fitted to the 1:1 binding model inherent to the software.
Binder,Kd,koff,kon
B19,5.4 nM,0.0201 s⁻¹,3.73e+06 M⁻¹ s⁻¹
B20,1.64 nM,0.0153 s⁻¹,9.35e+06 M⁻¹ s⁻¹
B21,2.27 nM and 2.6 nM,0.00747 s⁻¹ and 0.00798 s⁻¹,3.29e+06 M⁻¹ s⁻¹ and 3.07e+06 M⁻¹ s⁻¹
B22,6.8 nM,0.0708 s⁻¹,1.04e+07 M⁻¹ s⁻¹
B23,3.16 nM and 2.88 nM,0.0233 s⁻¹ and 0.0195 s⁻¹,7.39e+06 M⁻¹ s⁻¹ and 6.77e+06 M⁻¹ s⁻¹

# Molecular target: T2, recombinant human TGF-β RII/Fc chimera …
# Assay: SPR Biacore T200, receptor-Fc captured by anti-human IgG, dAb as analyte, 1:1 model
# Description: (§1) Anti-human IgG was immobilised on a Biacore CM4 chip by primary amine coupling according to the manufacturer's instructions. Human TGF-β RII/Fc, cynomolgus TGF-β RII/Fc or human Fc fragment were captured on this surface. Domain antibodies were passed over the two captured receptors at 3 concentrations of 100, 10 and 1 nM (DOM23h-439 dAbs) or 100, 25 and 6.25 nM (DOM23h-271 dAbs). Only the 100 nM concentration of each dab was passed over human Fc fragment to confirm specificity of binding to the extracellular TGF-β RII domain. An injection of buffer over the captured antigen surface was used for double referencing. […] All runs were carried out at 25° C. using HBS-EP buffer as running buffer. Data were generated using the BIACORE™ T200 and fitted to the 1:1 binding model inherent to the software. […] The DOM23h-271 dAbs and the DOM23h-439 lineages were run in separate experiments.
Binder,Kd [nM],koff [s⁻¹],kon [M⁻¹ s⁻¹]
B17,0.0817,0.000634,7.77e+06
B18,0.00983,0.000222,2.26e+07

# Molecular target: T3, cynomolgus TGF-β RII/Fc (cynomolgus)
# T3 construct: extracellular domain; also called Cyno TGFBRII; Cyno TGFbRII
# Assay: as above
# Description: as §1
Binder,Kd [nM],koff [s⁻¹],kon [M⁻¹ s⁻¹]
B17,0.304,0.00273,8.99e+06
B18,0.0291,0.000675,2.32e+07
